In US20170233470A1:

Target: NTSR1
Assay: cell-based or functional assay

- decrease in cell growth (proliferation) of CHO cells overexpressing NTSR1: 60%
Substance: Neurotensin (NTS) (from UniProt P30990 151-163) (peptide)
